Read-outs that look alike come from different tables or passages of the source.
B1: LC-G049C (antibody, V domains shown)
VH: EVQLQQSGPELVKPGASVKISCKTSGYTFTEYTMHWMKQSHRKSLEWIGGINTNNGGTGYNQKFKGKATLTVDKSSSTAYMELRSLTSEDSAVYFCARGSLYSYGNSYFDYWGQGTLVTVSS
VL: QIVLTQSPAIMSASPGEKVTITCSATSSVSYMHWFQQKPGTSPKLWIYCTSNLASGVPARFSGSGSGTSYSLTISRMEAEDAATYYCQQRSSYPFTFGQGTKVEIK
notes: CPE single point mutant of parent VL 48.6-LC-WT
B2: HC-T053D (antibody, V domains shown)
VH: EVQLQQSGPELVKPGASVKISCKTSGYTFTEYTMHWMKQSHRKSLEWIGGINDNNGGTGYNQKFKGKATLTVDKSSSTAYMELRSLTSEDSAVYFCARGSLYSYGNSYFDYWGQGTLVTVSS
VL: QIVLTQSPAIMSASPGEKVTITCSATSSVSYMHWFQQKPGTSPKLWIYGTSNLASGVPARFSGSGSGTSYSLTISRMEAEDAATYYCQQRSSYPFTFGQGTKVEIK
notes: CPE single point mutant of parent VH 48.6-HC-WT
B3: LC-H033G (antibody, V domains shown)
VH: EVQLQQSGPELVKPGASVKISCKTSGYTFTEYTMHWMKQSHRKSLEWIGGINTNNGGTGYNQKFKGKATLTVDKSSSTAYMELRSLTSEDSAVYFCARGSLYSYGNSYFDYWGQGTLVTVSS
VL: QIVLTQSPAIMSASPGEKVTITCSATSSVSYMGWFQQKPGTSPKLWIYGTSNLASGVPARFSGSGSGTSYSLTISRMEAEDAATYYCQQRSSYPFTFGQGTKVEIK
notes: as for B1
B4: HC-W112L (antibody, V domains shown)
VH: EVQLQQSGPELVKPGASVKISCKTSGYTFTEYTMHWMKQSHRKSLEWIGGINTNNGGTGYNQKFKGKATLTVDKSSSTAYMELRSLTSEDSAVYFCARGSLYSYGNSYFDYLGQGTLVTVSS
VL: QIVLTQSPAIMSASPGEKVTITCSATSSVSYMHWFQQKPGTSPKLWIYGTSNLASGVPARFSGSGSGTSYSLTISRMEAEDAATYYCQQRSSYPFTFGQGTKVEIK
notes: as for B2
B5: LC-G049H (antibody, V domains shown)
VH: EVQLQQSGPELVKPGASVKISCKTSGYTFTEYTMHWMKQSHRKSLEWIGGINTNNGGTGYNQKFKGKATLTVDKSSSTAYMELRSLTSEDSAVYFCARGSLYSYGNSYFDYWGQGTLVTVSS
VL: QIVLTQSPAIMSASPGEKVTITCSATSSVSYMHWFQQKPGTSPKLWIYHTSNLASGVPARFSGSGSGTSYSLTISRMEAEDAATYYCQQRSSYPFTFGQGTKVEIK
notes: as for B1
B6: LC-F097E (antibody, V domains shown)
VH: EVQLQQSGPELVKPGASVKISCKTSGYTFTEYTMHWMKQSHRKSLEWIGGINTNNGGTGYNQKFKGKATLTVDKSSSTAYMELRSLTSEDSAVYFCARGSLYSYGNSYFDYWGQGTLVTVSS
VL: QIVLTQSPAIMSASPGEKVTITCSATSSVSYMHWFQQKPGTSPKLWIYGTSNLASGVPARFSGSGSGTSYSLTISRMEAEDAATYYCQQRSSYPFTEGQGTKVEIK
notes: as for B1
B7: HC-R098Q (antibody, V domains shown)
VH: EVQLQQSGPELVKPGASVKISCKTSGYTFTEYTMHWMKQSHRKSLEWIGGINTNNGGTGYNQKFKGKATLTVDKSSSTAYMELRSLTSEDSAVYFCAQGSLYSYGNSYFDYWGQGTLVTVSS
VL: QIVLTQSPAIMSASPGEKVTITCSATSSVSYMHWFQQKPGTSPKLWIYGTSNLASGVPARFSGSGSGTSYSLTISRMEAEDAATYYCQQRSSYPFTFGQGTKVEIK
notes: as for B2
B8: HC-Y111C (antibody, V domains shown)
VH: EVQLQQSGPELVKPGASVKISCKTSGYTFTEYTMHWMKQSHRKSLEWIGGINTNNGGTGYNQKFKGKATLTVDKSSSTAYMELRSLTSEDSAVYFCARGSLYSYGNSYFDCWGQGTLVTVSS
VL: QIVLTQSPAIMSASPGEKVTITCSATSSVSYMHWFQQKPGTSPKLWIYGTSNLASGVPARFSGSGSGTSYSLTISRMEAEDAATYYCQQRSSYPFTFGQGTKVEIK
notes: as for B2
B9: LC-Q089E (antibody, V domains shown)
VH: EVQLQQSGPELVKPGASVKISCKTSGYTFTEYTMHWMKQSHRKSLEWIGGINTNNGGTGYNQKFKGKATLTVDKSSSTAYMELRSLTSEDSAVYFCARGSLYSYGNSYFDYWGQGTLVTVSS
VL: QIVLTQSPAIMSASPGEKVTITCSATSSVSYMHWFQQKPGTSPKLWIYGTSNLASGVPARFSGSGSGTSYSLTISRMEAEDAATYYCQERSSYPFTFGQGTKVEIK
notes: as for B1
B10: HC-S103G (antibody, V domains shown)
VH: EVQLQQSGPELVKPGASVKISCKTSGYTFTEYTMHWMKQSHRKSLEWIGGINTNNGGTGYNQKFKGKATLTVDKSSSTAYMELRSLTSEDSAVYFCARGSLYGYGNSYFDYWGQGTLVTVSS
VL: QIVLTQSPAIMSASPGEKVTITCSATSSVSYMHWFQQKPGTSPKLWIYGTSNLASGVPARFSGSGSGTSYSLTISRMEAEDAATYYCQQRSSYPFTFGQGTKVEIK
notes: as for B2
B11: HC-Y032D (antibody, V domains shown)
VH: EVQLQQSGPELVKPGASVKISCKTSGYTFTEDTMHWMKQSHRKSLEWIGGINTNNGGTGYNQKFKGKATLTVDKSSSTAYMELRSLTSEDSAVYFCARGSLYSYGNSYFDYWGQGTLVTVSS
VL: QIVLTQSPAIMSASPGEKVTITCSATSSVSYMHWFQQKPGTSPKLWIYGTSNLASGVPARFSGSGSGTSYSLTISRMEAEDAATYYCQQRSSYPFTFGQGTKVEIK
notes: as for B2
B12: LC-H033L (antibody, V domains shown)
VH: EVQLQQSGPELVKPGASVKISCKTSGYTFTEYTMHWMKQSHRKSLEWIGGINTNNGGTGYNQKFKGKATLTVDKSSSTAYMELRSLTSEDSAVYFCARGSLYSYGNSYFDYWGQGTLVTVSS
VL: QIVLTQSPAIMSASPGEKVTITCSATSSVSYMLWFQQKPGTSPKLWIYGTSNLASGVPARFSGSGSGTSYSLTISRMEAEDAATYYCQQRSSYPFTFGQGTKVEIK
notes: as for B1
B13: HC-Y111T (antibody, V domains shown)
VH: EVQLQQSGPELVKPGASVKISCKTSGYTFTEYTMHWMKQSHRKSLEWIGGINTNNGGTGYNQKFKGKATLTVDKSSSTAYMELRSLTSEDSAVYFCARGSLYSYGNSYFDTWGQGTLVTVSS
VL: QIVLTQSPAIMSASPGEKVTITCSATSSVSYMHWFQQKPGTSPKLWIYGTSNLASGVPARFSGSGSGTSYSLTISRMEAEDAATYYCQQRSSYPFTFGQGTKVEIK
notes: as for B2
B14: HC-T053E (antibody, V domains shown)
VH: EVQLQQSGPELVKPGASVKISCKTSGYTFTEYTMHWMKQSHRKSLEWIGGINENNGGTGYNQKFKGKATLTVDKSSSTAYMELRSLTSEDSAVYFCARGSLYSYGNSYFDYWGQGTLVTVSS
VL: QIVLTQSPAIMSASPGEKVTITCSATSSVSYMHWFQQKPGTSPKLWIYGTSNLASGVPARFSGSGSGTSYSLTISRMEAEDAATYYCQQRSSYPFTFGQGTKVEIK
notes: as for B2
B15: HC-R098H (antibody, V domains shown)
VH: EVQLQQSGPELVKPGASVKISCKTSGYTFTEYTMHWMKQSHRKSLEWIGGINTNNGGTGYNQKFKGKATLTVDKSSSTAYMELRSLTSEDSAVYFCAHGSLYSYGNSYFDYWGQGTLVTVSS
VL: QIVLTQSPAIMSASPGEKVTITCSATSSVSYMHWFQQKPGTSPKLWIYGTSNLASGVPARFSGSGSGTSYSLTISRMEAEDAATYYCQQRSSYPFTFGQGTKVEIK
notes: as for B2
B16: HC-N052L (antibody, V domains shown)
VH: EVQLQQSGPELVKPGASVKISCKTSGYTFTEYTMHWMKQSHRKSLEWIGGILTNNGGTGYNQKFKGKATLTVDKSSSTAYMELRSLTSEDSAVYFCARGSLYSYGNSYFDYWGQGTLVTVSS
VL: QIVLTQSPAIMSASPGEKVTITCSATSSVSYMHWFQQKPGTSPKLWIYGTSNLASGVPARFSGSGSGTSYSLTISRMEAEDAATYYCQQRSSYPFTFGQGTKVEIK
notes: as for B2
B17: LC-G049P (antibody, V domains shown)
VH: EVQLQQSGPELVKPGASVKISCKTSGYTFTEYTMHWMKQSHRKSLEWIGGINTNNGGTGYNQKFKGKATLTVDKSSSTAYMELRSLTSEDSAVYFCARGSLYSYGNSYFDYWGQGTLVTVSS
VL: QIVLTQSPAIMSASPGEKVTITCSATSSVSYMHWFQQKPGTSPKLWIYPTSNLASGVPARFSGSGSGTSYSLTISRMEAEDAATYYCQQRSSYPFTFGQGTKVEIK
notes: as for B1
B18: HC-T033C (antibody, V domains shown)
VH: EVQLQQSGPELVKPGASVKISCKTSGYTFTEYCMHWMKQSHRKSLEWIGGINTNNGGTGYNQKFKGKATLTVDKSSSTAYMELRSLTSEDSAVYFCARGSLYSYGNSYFDYWGQGTLVTVSS
VL: QIVLTQSPAIMSASPGEKVTITCSATSSVSYMHWFQQKPGTSPKLWIYGTSNLASGVPARFSGSGSGTSYSLTISRMEAEDAATYYCQQRSSYPFTFGQGTKVEIK
notes: as for B2
B19: HC-N052V (antibody, V domains shown)
VH: EVQLQQSGPELVKPGASVKISCKTSGYTFTEYTMHWMKQSHRKSLEWIGGIVTNNGGTGYNQKFKGKATLTVDKSSSTAYMELRSLTSEDSAVYFCARGSLYSYGNSYFDYWGQGTLVTVSS
VL: QIVLTQSPAIMSASPGEKVTITCSATSSVSYMHWFQQKPGTSPKLWIYGTSNLASGVPARFSGSGSGTSYSLTISRMEAEDAATYYCQQRSSYPFTFGQGTKVEIK
notes: as for B2

Assays:
Parameters in all cases: unit not given here
[1] = target: T1, human ROR2 (receptor tyrosine kinase-like orphan receptor 2) (human, UniProt Q01974 34-403, limits assumed); assay: affinity ELISA on human ROR2, pH 6.0
T1 construct: Antigen of the ELISA, SPR and pH titration assays; also called hROR2

[2] = target: T1, human ROR2 (receptor tyrosine …); assay: affinity ELISA on human ROR2, pH 7.4
[3] = target: T1, human ROR2 (receptor tyrosine …); assay: affinity ELISA on human ROR2, pH 6.0; remark: listed apart in the source
[4] = target: T1, human ROR2 (receptor tyrosine …); assay: affinity ELISA on human ROR2, pH 7.4; remark: listed apart in the source

T1 sequence (Q01974 34-403 limits assumed): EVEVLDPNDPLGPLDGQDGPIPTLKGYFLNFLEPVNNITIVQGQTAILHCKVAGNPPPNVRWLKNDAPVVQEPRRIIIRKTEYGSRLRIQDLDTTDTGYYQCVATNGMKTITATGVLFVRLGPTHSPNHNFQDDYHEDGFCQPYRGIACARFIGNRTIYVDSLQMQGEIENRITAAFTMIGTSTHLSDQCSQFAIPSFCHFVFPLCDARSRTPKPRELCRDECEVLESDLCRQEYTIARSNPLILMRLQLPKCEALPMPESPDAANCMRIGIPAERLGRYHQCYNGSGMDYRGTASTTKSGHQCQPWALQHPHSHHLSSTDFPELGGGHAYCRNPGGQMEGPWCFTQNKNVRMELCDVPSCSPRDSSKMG

Binder | Affinity ELISA, pH 6.0 [1] | Affinity ELISA, pH 7.4 [2] | Affinity ELISA, pH 6.0 [3] | Affinity ELISA, pH 7.4 [4]
B1 | 0.468 | 0.133 |  | 
B2 |  |  | 1.11 | 0.222
B3 | 1.1 | 0.536 |  | 
B4 |  |  | 1.75 | 1.7
B5 | 1.87 | 0.118 |  | 
B6 | 0.489 | 0.215 |  | 
B7 |  |  | 0.799 | 0.276
B8 |  |  | 1.08 | 0.793
B9 | 0.438 | 0.251 |  | 
B10 |  |  | 0.794 | 0.655
B11 |  |  | 1.47 | 0.51
B12 | 0.69 | 0.332 |  | 
B13 |  |  | 1.86 | 1.4
B14 |  |  | 0.54 | 0.157
B15 |  |  | 0.928 | 0.353
B16 |  |  | 0.911 | 0.433
B17 | 0.66 | 0.268 |  | 
B18 |  |  | 0.626 | 0.232
B19 |  |  | 0.87 | 0.34

Reference: patent US20250161472A1 (BIOATLA, published 2025)
